Reference: US20190292266A1

Columns and labels:
CD3 (Example 7) = assay: SPR, biotinylated CD3 on SA chip, Langmuir 1:1
[1] = target: PD1 (immobilized target, Example 7); assay: SPR, PD1 immobilized on CM5 chip, Langmuir 1:1

Sequence of CD3 (Example 7) (P22646 22-108): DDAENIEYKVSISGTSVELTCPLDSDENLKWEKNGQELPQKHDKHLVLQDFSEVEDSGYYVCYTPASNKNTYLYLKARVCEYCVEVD

Kd (CD3 (Example 7))	koff (CD3 (Example 7))	kon (CD3 (Example 7))	Kd [1]	koff [1]	kon [1]	Binder
10.8 nM	0.00306 s⁻¹	284000 M⁻¹ s⁻¹	4.61 nM	0.000229 s⁻¹	49600 M⁻¹ s⁻¹	145-2C11 Fab NH 128187 (bispecific antibody, modifications not checked) heavy: not shown light: DIQMTQSPSSLPASLGDRVTINCQASQDISNYLNWYQQKPGKAPKLLIYYTNKLADGVPSRFSGSGSGRDSSFTISSLESEDIGSYYCQQYYNYPWTFGPGTKLEIKRADAKPTVSIFPPSSEQLGTGSATLVCFVNNFYPKDINVKWKVDGSEKRDGVLQSVTDQDSKDSTYSLSSTLSLTKADYERHNLYTCEVTHKTSTAAIVKTLNRNEC
2.14 nM	0.00126 s⁻¹	587000 M⁻¹ s⁻¹	686 nM	9.45e-05 s⁻¹	138 M⁻¹ s⁻¹	145-2C11 Fab CH 128187 (bispecific antibody, modifications not checked) heavy: not shown light: DIQMTQSPSSLPASLGDRVTINCQASQDISNYLNWYQQKPGKAPKLLIYYTNKLADGVPSRFSGSGSGRDSSFTISSLESEDIGSYYCQQYYNYPWTFGPGTKLEIKRADAKPTVSIFPPSSEQLGTGSATLVCFVNNFYPKDINVKWKVDGSEKRDGVLQSVTDQDSKDSTYSLSSTLSLTKADYERHNLYTCEVTHKTSTAAIVKTLNRNEC
3.92 nM	0.0015 s⁻¹	381000 M⁻¹ s⁻¹	36.2 nM	0.000282 s⁻¹	7780 M⁻¹ s⁻¹	145-2C11 Fab CL 128187 (bispecific antibody, modifications not checked) heavy: EVQLVESGGGLVQPGKSLKLSCEASGFTFSGYGMHWVRQAPGRGLESVAYITSSSINIKYADAVKGRFTVSRDNAKNLLFLQMNILKSEDTAMYYCARFDWDKNYWGQGTMVTVSSAKTTAPSVYPLAPACDSTTSTTNTVTLGCLVKGYFPEPVTVIWNSGALTSGVHTFPSVLHSGLYSLSSSVTVPSSTWPSQTVTCNVAHPASSTTVDLKIE light: not shown
